Patent publication US20180200345A1, “PROCESS AND COMPOSITION FOR LOW DOSE INSEMINATION” (IMV TECHNOLOGIES, priority 2015, published 2018)

System: uterine epithelial cells (UEC)
Test: Sperm binding to UEC monolayer pre-incubated with lectin
Type: cell-based, porcine
Conditions: UEC pre-incubated with lectin 10 μg/ml 15 min, then sperm 10 min
Description: Confluent UEC were grown on glass cover slips form primary cell cultures. In total, uteri from 78 primiparous German Landrace or German Edelschwein gilts aged 8-10 months and with live weights of over 110 kg, were retrieved to harvest primary cells. All animals were maintained and handled according to the German regulations for animal welfare. Gilts were monitored for natural oestrus and slaughtered according to standing heat, i.e. at the time when artificial insemination would have been performed. Gilts were stunned electrically and subsequently slaughtered by exsanguination. Three minutes after bleeding the abdomen was opened and the uterus removed in toto. Further, the ovaries, oviducts and the mesometrium were removed by cutting with sterile scissors without damaging the myometrium. The uterine horns were ligated with stitching thread between and a section of 20-25 cm was cut off. The sections were placed in sterile phosphate buffered saline (PBS) without Ca^++ and Mg^++ (Karl Roth, Karlsruhe, Germany) containing 2% Penicillin/Streptomycin (P/S; PAA, Pasching, Austria) in a glass bottle and kept at 5° C. for 45 min. After 45 min at 5° C. the uterine sections were removed from the bottle and placed on cellulose tissue under a sterile laminar flow system. The stitching material was removed. […]

B1: PNA: lectin with affinity for β-D-(1-3)-D-galactosamine (protein, UniProt P02872 24-273, looked up)
Galactose-binding lectin: AETVSFNFNSFSEGNPAINFQGDVTVLSNGNIQLTNLNKVNSVGRVLYAMPVRIWSSATGNVASFLTSFSFEMKDIKDYDPADGIIFFIAPEDTQIPAGSIGGGTLGVSDTKGAGHFVGVEFDTYSNSEYNDPPTDHVGIDVNSVDSVKTVPWNSVSGAVVKVTVIYDSSTKTLSVAVTNDNGDITTIAQVVDLKAKLPERVKFGFSASGSLGGRQIHLIRSWSFTSTLITTTRRSIDNNEKKIMNMASA
- effect on sperm binding to UEC (in words): some areas showed massive sperm binding as seen with untreated UEC, whereas others were not populated at all
